Reference: US20240293478A1 (ACTYM THERAPEUTICS, published 2024)

T1: Human DLL3 (R&D Systems) (human, UniProt Q9NYJ7 27-492, limits assumed)
T1 sequence (looked up): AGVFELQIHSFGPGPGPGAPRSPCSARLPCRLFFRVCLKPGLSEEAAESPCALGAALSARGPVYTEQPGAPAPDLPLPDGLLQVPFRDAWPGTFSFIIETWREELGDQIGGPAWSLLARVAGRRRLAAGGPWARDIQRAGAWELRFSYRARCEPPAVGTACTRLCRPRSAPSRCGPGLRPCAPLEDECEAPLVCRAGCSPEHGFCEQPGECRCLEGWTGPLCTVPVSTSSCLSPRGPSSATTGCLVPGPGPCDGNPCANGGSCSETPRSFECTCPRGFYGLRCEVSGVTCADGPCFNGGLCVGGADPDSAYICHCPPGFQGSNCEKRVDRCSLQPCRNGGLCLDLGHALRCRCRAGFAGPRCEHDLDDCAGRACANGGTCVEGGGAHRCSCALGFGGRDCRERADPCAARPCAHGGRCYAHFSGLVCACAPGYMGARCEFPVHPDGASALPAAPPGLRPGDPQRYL

T2: DLL3 on SHP77 cells (UniProt Q9NYJ7 27-618, limits assumed)
T2 construct: whole, on cells; also called delta-like ligand 3
T2 sequence (looked up): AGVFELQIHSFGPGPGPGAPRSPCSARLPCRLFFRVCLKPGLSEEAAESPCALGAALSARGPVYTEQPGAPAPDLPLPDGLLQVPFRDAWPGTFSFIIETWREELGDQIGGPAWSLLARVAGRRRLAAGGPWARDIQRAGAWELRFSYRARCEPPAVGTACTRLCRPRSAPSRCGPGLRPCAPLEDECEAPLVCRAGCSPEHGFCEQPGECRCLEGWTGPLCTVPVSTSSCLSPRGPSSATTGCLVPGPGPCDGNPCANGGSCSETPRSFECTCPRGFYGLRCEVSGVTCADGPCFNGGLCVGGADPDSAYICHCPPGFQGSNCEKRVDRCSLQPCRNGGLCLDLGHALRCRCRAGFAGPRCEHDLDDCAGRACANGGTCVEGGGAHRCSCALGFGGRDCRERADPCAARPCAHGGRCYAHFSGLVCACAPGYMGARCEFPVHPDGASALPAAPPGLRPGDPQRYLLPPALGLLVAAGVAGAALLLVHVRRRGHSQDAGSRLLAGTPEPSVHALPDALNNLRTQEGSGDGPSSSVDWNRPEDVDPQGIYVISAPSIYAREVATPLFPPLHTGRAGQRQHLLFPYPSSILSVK

B1: SC16.34 DLL3LH×CD3HL (bispecific antibody)
chain: SIVMTQTPKFLLVSAGDRVTITCKASQSVSNDVAWYQQKPGQSPKLLIYYASNRYSGVPDRFTGSGYGTDFTFTISTVQAEDLAVYFCQQDYSSPWTFGGGTKLEIKGGGGSGGGGSGGGGSQIQLVQSGPELKRPGETVKISCKASGYTFTNYGMNWVKQAPGKGLKWMGWINTYTGDPTYADDFKGRFAFSLETSASTAYLQINNLKNEDTATYFCARIGGNSPSDYWGQGTSLTVSSGGGGSEVQLVESGGGLVQPGKSLKLSCEASGFTFSGYGMHWVRQAPGRGLESVAYITSSSINIKYADAVKGRFTVSRDNAKNLLFLQMNILKSEDTAMYYCARFDWDKNYWGQGTMVTVSSGGGGSGGGGSGGGGSDIQMTQSPSSLPASLGDRVTINCQASQDISNYLNWYQQKPGKAPKLLIYYTNKLADGVPSRFSGSGSGRDSSFTISSLESEDIGSYYCQQYYNYPWTFGPGTKLEIKDYKDDDDK
notes: the leader is left out here; also called SC16.34 DLL3LHxCD3HL BiTE
B2: SC16.56 DLL3HL×CD3HL (bispecific antibody)
chain: QIQLVQSGPELKKPGETVKISCKASGYTFTNYGMNWVKQAPGKGLKWMAWINTYTGEPTYADDFKGRFAFSLETSASTASLQIINLKNEDTATYFCARIGDSSPSDYWGQGTTLTVSSGGGGSGGGGSGGGGSSIVMTQTPKFLLVSAGDRVTITCKASQSVSNDVVWYQQKPGQSPKLLIYYASNRYTGVPDRFAGSGYGTDFSFTISTVQAEDLAVYFCQQDYTSPWTFGGGTKLEIRGGGGSEVQLVESGGGLVQPGKSLKLSCEASGFTFSGYGMHWVRQAPGRGLESVAYITSSSINIKYADAVKGRFTVSRDNAKNLLFLQMNILKSEDTAMYYCARFDWDKNYWGQGTMVTVSSGGGGSGGGGSGGGGSDIQMTQSPSSLPASLGDRVTINCQASQDISNYLNWYQQKPGKAPKLLIYYTNKLADGVPSRFSGSGSGRDSSFTISSLESEDIGSYYCQQYYNYPWTFGPGTKLEIKDYKDDDDK
notes: the leader is left out here; Tested as HEK293T supernatant; also called SC16.56 DLL3HLxCD3HL BiTE
B3: SC16.56 DLL3LH×CD3HL (bispecific antibody)
chain: SIVMTQTPKFLLVSAGDRVTITCKASQSVSNDVVWYQQKPGQSPKLLIYYASNRYTGVPDRFAGSGYGTDFSFTISTVQAEDLAVYFCQQDYTSPWTFGGGTKLEIRGGGGSGGGGSGGGGSQIQLVQSGPELKKPGETVKISCKASGYTFTNYGMNWVKQAPGKGLKWMAWINTYTGEPTYADDFKGRFAFSLETSASTASLQIINLKNEDTATYFCARIGDSSPSDYWGQGTTLTVSSGGGGSEVQLVESGGGLVQPGKSLKLSCEASGFTFSGYGMHWVRQAPGRGLESVAYITSSSINIKYADAVKGRFTVSRDNAKNLLFLQMNILKSEDTAMYYCARFDWDKNYWGQGTMVTVSSGGGGSGGGGSGGGGSDIQMTQSPSSLPASLGDRVTINCQASQDISNYLNWYQQKPGKAPKLLIYYTNKLADGVPSRFSGSGSGRDSSFTISSLESEDIGSYYCQQYYNYPWTFGPGTKLEIKDYKDDDDK
notes: the leader is left out here; Tested as HEK293T supernatant; also called SC16.56 DLL3LHxCD3HL BiTE
B4: SC16.15 DLL3HL×CD3HL (bispecific antibody)
chain: QVQLQQSGAELAKPGASVKMSCKASGYTFTRYWIHWIKQRPGQGLEWIGYINPTTVYTEFNQNFKDKATLTADKSSTTASMQLSSLTSEDSAVYYCARGGSNFFDYWGQGTTLTVSSGGGGSGGGGSGGGGSDIQMTQSPASLAASVGETVAITCRASENIYYNLAWYQQKQGKSPQLLIYTANSLEDGVPSRFSGSGSGTQYSLKINSMQPEDSATYFCKQAYDVPPTFGGGTKLEIKGGGGSEVQLVESGGGLVQPGKSLKLSCEASGFTFSGYGMHWVRQAPGRGLESVAYITSSSINIKYADAVKGRFTVSRDNAKNLLFLQMNILKSEDTAMYYCARFDWDKNYWGQGTMVTVSSGGGGSGGGGSGGGGSDIQMTQSPSSLPASLGDRVTINCQASQDISNYLNWYQQKPGKAPKLLIYYTNKLADGVPSRFSGSGSGRDSSFTISSLESEDIGSYYCQQYYNYPWTFGPGTKLEIKDYKDDDDK
notes: the leader is left out here; Tested as HEK293T supernatant; also called SC16.15 DLL3HLxCD3HL BiTE
B5: SC16.34 DLL3HL×CD3HL (bispecific antibody)
chain: QIQLVQSGPELKRPGETVKISCKASGYTFTNYGMNWVKQAPGKGLKWMGWINTYTGDPTYADDFKGRFAFSLETSASTAYLQINNLKNEDTATYFCARIGGNSPSDYWGQGTSLTVSSGGGGSGGGGSGGGGSSIVMTQTPKFLLVSAGDRVTITCKASQSVSNDVAWYQQKPGQSPKLLIYYASNRYSGVPDRFTGSGYGTDFTFTISTVQAEDLAVYFCQQDYSSPWTFGGGTKLEIKGGGGSEVQLVESGGGLVQPGKSLKLSCEASGFTFSGYGMHWVRQAPGRGLESVAYITSSSINIKYADAVKGRFTVSRDNAKNLLFLQMNILKSEDTAMYYCARFDWDKNYWGQGTMVTVSSGGGGSGGGGSGGGGSDIQMTQSPSSLPASLGDRVTINCQASQDISNYLNWYQQKPGKAPKLLIYYTNKLADGVPSRFSGSGSGRDSSFTISSLESEDIGSYYCQQYYNYPWTFGPGTKLEIKDYKDDDDK
notes: the leader is left out here; Tested as HEK293T supernatant; also called SC16.34 DLL3HLxCD3HL BiTE
B6: SC16.15 DLL3LH×CD3HL (bispecific antibody)
chain: DIQMTQSPASLAASVGETVAITCRASENIYYNLAWYQQKQGKSPQLLIYTANSLEDGVPSRFSGSGSGTQYSLKINSMQPEDSATYFCKQAYDVPPTFGGGTKLEIKGGGGSGGGGSGGGGSQVQLQQSGAELAKPGASVKMSCKASGYTFTRYWIHWIKQRPGQGLEWIGYINPTTVYTEFNQNFKDKATLTADKSSTTASMQLSSLTSEDSAVYYCARGGSNFFDYWGQGTTLTVSSGGGGSEVQLVESGGGLVQPGKSLKLSCEASGFTFSGYGMHWVRQAPGRGLESVAYITSSSINIKYADAVKGRFTVSRDNAKNLLFLQMNILKSEDTAMYYCARFDWDKNYWGQGTMVTVSSGGGGSGGGGSGGGGSDIQMTQSPSSLPASLGDRVTINCQASQDISNYLNWYQQKPGKAPKLLIYYTNKLADGVPSRFSGSGSGRDSSFTISSLESEDIGSYYCQQYYNYPWTFGPGTKLEIKDYKDDDDK
notes: the leader is left out here; Tested as HEK293T supernatant; also called SC16.15 DLL3LHxCD3HL BiTE

Target: T1, Human DLL3 (R&D Systems)
Assay: bridging ELISA: human DLL3 coated at 1 ug/ml, HEK293T supernatant, detection by human IgG Fc conjugated CD3e + anti-human-HRP (signal needs binding to both DLL3 and CD3e); untransfected 0.010
Method: (§1) The expressed DLL3×CD3 bispecific T-cell engagers also were evaluated for binding to DLL3 and to CD3 with an ELISA. This ELISA was developed to detect correctly folded DLL3×CD3 bispecific T-cell engager binding to DLL3 and CD3 in the same assay. Human DLL3 (R&D Systems) was coated overnight at 4° C. on a high protein-binding 96-well plate, at a concentration of 1 ug/ml. The wells then were washed three times with PBS 0.05% Tween-20, and the wells were blocked with ELISA blocking buffer for 1 hour at room temperature. The wells then were washed three times with PBS 0.05% Tween-20. HEK293T cell culture supernatants, containing the DLL3×CD3 bispecific T-cell engagers, were added to the wells and incubated for 2 hours at room temperature. The wells were washed three times with PBS 0.05% Tween-20, and human IgG Fc conjugated CD3e was added to the wells (Acro Biosystems), and incubated for one hour at room temperature. The wells again were washed three times with PBS 0.05% Tween-20, and horseradish peroxidase (HRP)-conjugated anti-human antibody was added for a 1 hour incubation. The wells were then washed three times with PBS 0.05% Tween-20, and detection reagent (3,3′,5,5′-tetramethylbenzidine (TMB), Thermo Fisher Scientific) was added to the wells. The enzymatic reaction was stopped with sulfuric acid (BioLegend), and the optical densities were read at 450 nm.

Absorbance at 450 nm	Binder
1.46 absorbance (450 nm)	B1
0.007 absorbance (450 nm)	B2
0.175 absorbance (450 nm)	B3
0.002 absorbance (450 nm)	B4
0.253 absorbance (450 nm)	B5
0.001 absorbance (450 nm)	B6

Target: T1, Human DLL3 (R&D Systems)
Assay: bridging ELISA (human DLL3 coated, CD3e-Fc detection) with engagers purified on ANTI-FLAG M2 Affinity Gel
Method: as §1
The table below provides the results of this ELISA, shown as the absorbance at 450 nm. All of the SC16.56 DLL3LH×CD3HL, SC16.34 DLL3HL×CD3HL, and SC16.34 DLL3LH×CD3HL BiTE antibodies were detected, showing that these BiTEs antibodies are fully functional. […] In a separate experiment, the bispecific T-cell engagers were purified using ANTI-FLAG M2 Affinity Gel (Sigma) and run on this ELISA. SC16.34 DLL3LH×CD3HL was the only purified BiTE to show ELISA signal above background.

binding result	Binder
no binding	B2
no binding	B4
no binding	B6

Target: T2, DLL3 on SHP77 cells
Assay: flow cytometry on SHP77 cells, concentrated HEK supernatant, Protein L biotin + Streptavidin APC; percent APC positive cells
Method: (§2) 500,000 SHP77 cells were seeded in wells of a V-bottom 96-well plate. The cells were washed once with PBS+2% FBS by centrifugation at 1300 RPM for 3 minutes. The cells were resuspended in 50 uL PBS+2% FBS containing concentrated HEK supernatant corresponding to either untransfected cells or cells transfected with a BiTE. After 30 minutes, the cells were washed twice with PBS+2% FBS by centrifugation at 1300 RPM for 3 minutes. The cells were then resuspended in 50 uL PBS+2% FBS containing either anti-Flag biotin (Sigma) at 1:100 dilution or Protein L biotin (Genscript) at 1:200 dilution, and incubated on ice for 30 minutes. The cells were washed twice with PBS+2% FBS by centrifugation at 1300 RPM for 3 minutes. Subsequently, the cells were stained with Streptavidin APC (Biolegend) at 1:200 dilution and incubated on ice for 30 minutes in the dark.
(§3) The cells were washed twice with PBS+2% FBS by centrifugation at 1300 RPM for 3 minutes and resuspended in DAPI diluted 1:6000 in PBS+2% FBS. Flow cytometry data were acquired using the ACEA NovoCyte® flow cytometer (ACEA Biosciences, Inc.), and analyzed using the FlowJo™ software (Tree Star, Inc.).

% Binding to SHP77 Detected by Protein L [%]	Binder
36.4	B1
36.4	B3
36.6	B5

Target: T2, DLL3 on SHP77 cells
Assay: flow cytometry on SHP77 cells, concentrated HEK supernatant, anti-Flag biotin + Streptavidin APC; percent APC positive cells
Method: as §2, §3

% Binding to SHP77 Detected by anti-Flag [%]	Binder
20.1	B1
20.9	B3
19.6	B5
